In EP2275116A1 one finds inhibition of IL-1β induced expression of PGE2 in SW1353 cells (ELISA of supernatant), inhibition of IL-1β-induced expression of MMP13 in SW1353 cells (ELISA of supernatant) and inhibition of basal MMP13 expression in non-stimulated SW1353 cells (ELISA of supernatant) data, which are given here for one substance.

The target of the test is human p21-activated kinase 1 (PAK1) (human) (UniProt Q13153). Description: cell-based or functional assay.
UniProt Q13153, sequence (Q13153 whole entry R237L/F379S, form in doubt): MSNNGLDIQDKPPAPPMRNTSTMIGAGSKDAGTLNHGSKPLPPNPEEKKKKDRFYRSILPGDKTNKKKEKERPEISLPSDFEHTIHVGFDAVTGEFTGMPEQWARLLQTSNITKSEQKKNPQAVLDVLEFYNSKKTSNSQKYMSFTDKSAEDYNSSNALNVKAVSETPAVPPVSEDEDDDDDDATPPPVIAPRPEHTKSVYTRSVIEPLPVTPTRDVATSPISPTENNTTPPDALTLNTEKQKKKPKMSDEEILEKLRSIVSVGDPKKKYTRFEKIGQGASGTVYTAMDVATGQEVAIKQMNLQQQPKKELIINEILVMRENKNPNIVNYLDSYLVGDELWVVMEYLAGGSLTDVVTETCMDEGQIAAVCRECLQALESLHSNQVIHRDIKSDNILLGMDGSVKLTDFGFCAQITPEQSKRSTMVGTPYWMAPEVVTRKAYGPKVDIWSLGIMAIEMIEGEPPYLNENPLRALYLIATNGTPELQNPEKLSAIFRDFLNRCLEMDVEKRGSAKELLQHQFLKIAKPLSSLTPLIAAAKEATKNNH

Substance “HA-tagged PAK1 inhibitory domain (PAK1 residues 83 to 149) (from UniProt P35465 83-149)” yielded an inhibition of IL-1β induced expression of PGE2 in SW1353 cells (ELISA of supernatant) greater than 50%, an inhibition of IL-1β-induced expression of MMP13 in SW1353 cells (ELISA of supernatant) of 55% and an inhibition of basal MMP13 expression in non-stimulated SW1353 cells (ELISA of supernatant) greater than 80%.
